We go through 2 molecules from US20240131074A1 (published 2024).

The target in the test is human PSMA protein (ELISA) (human, UniProt Q04609 44-750). Nature of the test: BLI (Octet). Background: In BLI a coated tip is dipped into the sample, and binding shifts an interference pattern.
human PSMA protein (ELISA), sequence (Q04609 44-750): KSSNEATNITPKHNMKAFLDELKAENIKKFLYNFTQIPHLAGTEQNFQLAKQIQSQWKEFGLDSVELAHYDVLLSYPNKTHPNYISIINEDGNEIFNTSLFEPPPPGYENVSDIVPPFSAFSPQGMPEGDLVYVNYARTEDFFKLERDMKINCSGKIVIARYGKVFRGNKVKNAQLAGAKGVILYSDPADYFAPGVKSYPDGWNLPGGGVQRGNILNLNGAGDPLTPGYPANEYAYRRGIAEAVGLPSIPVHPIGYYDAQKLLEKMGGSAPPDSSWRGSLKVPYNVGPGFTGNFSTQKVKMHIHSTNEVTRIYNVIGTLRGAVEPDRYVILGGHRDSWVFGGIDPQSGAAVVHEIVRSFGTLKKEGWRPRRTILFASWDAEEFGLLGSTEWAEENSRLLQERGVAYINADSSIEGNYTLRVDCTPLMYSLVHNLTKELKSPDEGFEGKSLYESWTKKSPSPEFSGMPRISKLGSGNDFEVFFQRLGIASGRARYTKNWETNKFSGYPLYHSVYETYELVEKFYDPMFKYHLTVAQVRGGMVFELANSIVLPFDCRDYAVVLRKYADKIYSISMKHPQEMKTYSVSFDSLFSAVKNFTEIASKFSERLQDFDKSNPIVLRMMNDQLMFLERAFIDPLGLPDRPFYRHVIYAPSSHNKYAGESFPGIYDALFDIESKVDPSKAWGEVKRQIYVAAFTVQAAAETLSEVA

B1: Anti-PSMA heavy chain-only antibody (UniAb) Clone ID 325972 (antibody, V domains shown)
VH: EVQLLESGGGVVQPGRSLRLSCAASGFSFSGYGMHWVRQAPGKEREWVAVISYDGSNKYYADSVKGRFTISRDNSKNTLYLQMNSLRAEDTAVYYCAKDANWGQHPDHTSFDYRGQGTLVTVSS
As a reminder, the Kd is the free concentration of one partner at which half of the binding sites on the other are occupied at equilibrium, for simple one-to-one binding. The low end stands for a tighter complex, the high end for a looser complex. As for B1, the Kd turned out to be 17 nM.

B2: Anti-PSMA heavy chain-only antibody (UniAb) Clone ID 325795 (antibody, V domains shown)
VH: EVQLLESGGGLVQPGGSLRLSCAASGFTFKFYAMSWVRQAPGKGPEWVSVISGSGGSTYYADSVKGRFTISRDNSKNTLHLQMNSLRAEDTAVYFCAKEIAEASRGFDYRGQGTLVTVSS
In turn, B2 came in with a Kd of 24.9 nM.
